From article PMC3116947 come the findings set out here.

Numbering of substitutions follows the chain as printed. Values joined by “and” are separate entries in the source; they are usually repeats but may differ in a detail not shown here. Equal entries are not always repeated.

One may read the Kd as the equilibrium constant for the complex coming apart. Read a low Kd as higher affinity.

The target of assay [1] is Gab1 G1 peptide (Homo sapiens). In words: ITC. On the technique in general: In ITC the heat of successive injections is recorded.
Assay [2] concerns the target Gab1 G2 peptide (Homo sapiens). In words: ITC.

B1: Grb2 cSH3, P62993 (protein)
chain: QQPTYVQALFDFDPQEDGELGFRRGDFIHVMANSDPNWWKGACHGQTGMFPRNYVTPVNR
As to B1, in assay [1], the Kd was 171 µM.

B2: Grb2 cSH3, P62993 (protein)
chain: B1 chain with E16A, A32D
Consider B2, for which the Kd in assay [1] was determined as 444 µM; in assay [2] it was 158 µM.

B3: Grb2 cSH3, P62993 (protein)
chain: B1 chain with A32D
On to B3, for which the Kd in assay [1] is 200 µM and 152 µM and 50 µM; in assay [2], 42 µM.
